Test results reported in the RNAGym collection of RNA variant scans (doi:10.1021/acssynbio.7b00057).

B1: Pistol ribozyme (parent)
chain: GGGUCGUUGUUCCAUAAUCGCGUGGAUAUGGCACGCAAGUUUCUACCGGGCACCGUAAAUGUCCGACUGGAGCCGUUCGGGCGGCUAUAAACAGACCUCAGGCCCGAAGCGUGGCGGCACCUGCCGCCGGUGGUAAAAAAGAUCGGAAGAGCACACGUCU

Variants of: B1
Assay: aptazyme ON/OFF ratio, guanine; higher = stronger switching; co-transcriptional cleavage with and without guanine

Compared with GGGUCGAUACACAAUAAUCGCGUGGAUAUGGCACGCAAGUUUCUACCGGGCACCGUAAAUGUCCGACUGGAGCCGUUCGGGCGGCUAUAAACAGACCUCAGGCCCGAAGCGUGGCGGCACCUGCCGCCGGUGGUAAAAAAGAUCGGAAGAGCACACGUCU [U7A G9A U10C U11A C13A], GGGUCGAUACACCAUAAUCGCGUGGAUAUGGCACGCAAGUUUCUACCGGGCACCGUAAAUGUCCGACUGGAGCCGUUCGGGCGGCUAUAAACAGACCUCAGGCCCGAAGCGUGGCGGCACCUGCCGCCGGUGGUAAAAAAGAUCGGAAGAGCACACGUCU [U7A G9A U10C U11A] is higher in “aptazyme ON/OFF ratio” value: 1.15 for the first, 1.27 for the second.

GGGUCGAUACUUUAUAAUCGCGUGGAUAUGGCACGCAAGUUUCUACCGGGCACCGUAAAUGUCCGACUGGAGCCGUUCGGGCGGCUAUAAACAGACCUCAGGCCCGAAGCGUGGCGGCACCUGCCGCCGGUGGUAAAAAAGAUCGGAAGAGCACACGUCU [U7A G9A U10C C12U C13U] and GGGUCGAUACAAAAUAAUCGCGUGGAUAUGGCACGCAAGUUUCUACCGGGCACCGUAAAUGUCCGACUGGAGCCGUUCGGGCGGCUAUAAACAGACCUCAGGCCCGAAGCGUGGCGGCACCUGCCGCCGGUGGUAAAAAAGAUCGGAAGAGCACACGUCU [U7A G9A U10C U11A C12A C13A] are the same in “aptazyme ON/OFF ratio” value: 1.2 for the first, 1.2 for the second.

First: GGGUCGAUACAAGAUAAUCGCGUGGAUAUGGCACGCAAGUUUCUACCGGGCACCGUAAAUGUCCGACUGGAGCCGUUCGGGCGGCUAUAAACAGACCUCAGGCCCGAAGCGUGGCGGCACCUGCCGCCGGUGGUAAAAAAGAUCGGAAGAGCACACGUCU [U7A G9A U10C U11A C12A C13G]
Second: GGGUCGAUACAAUAUAAUCGCGUGGAUAUGGCACGCAAGUUUCUACCGGGCACCGUAAAUGUCCGACUGGAGCCGUUCGGGCGGCUAUAAACAGACCUCAGGCCCGAAGCGUGGCGGCACCUGCCGCCGGUGGUAAAAAAGAUCGGAAGAGCACACGUCU [U7A G9A U10C U11A C12A C13U]
The “aptazyme ON/OFF ratio” value of the first is lower: 1.05 for the first, 1.19 for the second.

First: GGGUCGAUACAACAUAAUCGCGUGGAUAUGGCACGCAAGUUUCUACCGGGCACCGUAAAUGUCCGACUGGAGCCGUUCGGGCGGCUAUAAACAGACCUCAGGCCCGAAGCGUGGCGGCACCUGCCGCCGGUGGUAAAAAAGAUCGGAAGAGCACACGUCU [U7A G9A U10C U11A C12A]
Second: GGGUCGAUACAUCAUAAUCGCGUGGAUAUGGCACGCAAGUUUCUACCGGGCACCGUAAAUGUCCGACUGGAGCCGUUCGGGCGGCUAUAAACAGACCUCAGGCCCGAAGCGUGGCGGCACCUGCCGCCGGUGGUAAAAAAGAUCGGAAGAGCACACGUCU [U7A G9A U10C U11A C12U]
The “aptazyme ON/OFF ratio” value of the first is lower: 1.24 for the first, 1.31 for the second.

First: GGGUCGAUACAGCAUAAUCGCGUGGAUAUGGCACGCAAGUUUCUACCGGGCACCGUAAAUGUCCGACUGGAGCCGUUCGGGCGGCUAUAAACAGACCUCAGGCCCGAAGCGUGGCGGCACCUGCCGCCGGUGGUAAAAAAGAUCGGAAGAGCACACGUCU [U7A G9A U10C U11A C12G]
Second: GGGUCGAUACAGUAUAAUCGCGUGGAUAUGGCACGCAAGUUUCUACCGGGCACCGUAAAUGUCCGACUGGAGCCGUUCGGGCGGCUAUAAACAGACCUCAGGCCCGAAGCGUGGCGGCACCUGCCGCCGGUGGUAAAAAAGAUCGGAAGAGCACACGUCU [U7A G9A U10C U11A C12G C13U]
The “aptazyme ON/OFF ratio” value of the first is higher: 1.27 for the first, 1.16 for the second.

First: GGGUCGAUACAGAAUAAUCGCGUGGAUAUGGCACGCAAGUUUCUACCGGGCACCGUAAAUGUCCGACUGGAGCCGUUCGGGCGGCUAUAAACAGACCUCAGGCCCGAAGCGUGGCGGCACCUGCCGCCGGUGGUAAAAAAGAUCGGAAGAGCACACGUCU [U7A G9A U10C U11A C12G C13A]
Second: GGGUCGAUACAGGAUAAUCGCGUGGAUAUGGCACGCAAGUUUCUACCGGGCACCGUAAAUGUCCGACUGGAGCCGUUCGGGCGGCUAUAAACAGACCUCAGGCCCGAAGCGUGGCGGCACCUGCCGCCGGUGGUAAAAAAGAUCGGAAGAGCACACGUCU [U7A G9A U10C U11A C12G C13G]
The “aptazyme ON/OFF ratio” value of the first is lower: 1.19 for the first, 1.32 for the second.

Going from GGGUCGAUACUCUAUAAUCGCGUGGAUAUGGCACGCAAGUUUCUACCGGGCACCGUAAAUGUCCGACUGGAGCCGUUCGGGCGGCUAUAAACAGACCUCAGGCCCGAAGCGUGGCGGCACCUGCCGCCGGUGGUAAAAAAGAUCGGAAGAGCACACGUCU [U7A G9A U10C C13U] to GGGUCGAUACUCAAUAAUCGCGUGGAUAUGGCACGCAAGUUUCUACCGGGCACCGUAAAUGUCCGACUGGAGCCGUUCGGGCGGCUAUAAACAGACCUCAGGCCCGAAGCGUGGCGGCACCUGCCGCCGGUGGUAAAAAAGAUCGGAAGAGCACACGUCU [U7A G9A U10C C13A], the “aptazyme ON/OFF ratio” value falls from 1.12 to 1.06.

Going from GGGUCGAUACUCGAUAAUCGCGUGGAUAUGGCACGCAAGUUUCUACCGGGCACCGUAAAUGUCCGACUGGAGCCGUUCGGGCGGCUAUAAACAGACCUCAGGCCCGAAGCGUGGCGGCACCUGCCGCCGGUGGUAAAAAAGAUCGGAAGAGCACACGUCU [U7A G9A U10C C13G] to GGGUCGAUACAUUAUAAUCGCGUGGAUAUGGCACGCAAGUUUCUACCGGGCACCGUAAAUGUCCGACUGGAGCCGUUCGGGCGGCUAUAAACAGACCUCAGGCCCGAAGCGUGGCGGCACCUGCCGCCGGUGGUAAAAAAGAUCGGAAGAGCACACGUCU [U7A G9A U10C U11A C12U C13U], the “aptazyme ON/OFF ratio” value rises from 1.06 to 1.22.

Going from GGGUCGAUACAUAAUAAUCGCGUGGAUAUGGCACGCAAGUUUCUACCGGGCACCGUAAAUGUCCGACUGGAGCCGUUCGGGCGGCUAUAAACAGACCUCAGGCCCGAAGCGUGGCGGCACCUGCCGCCGGUGGUAAAAAAGAUCGGAAGAGCACACGUCU [U7A G9A U10C U11A C12U C13A] to GGGUCGAUACAUGAUAAUCGCGUGGAUAUGGCACGCAAGUUUCUACCGGGCACCGUAAAUGUCCGACUGGAGCCGUUCGGGCGGCUAUAAACAGACCUCAGGCCCGAAGCGUGGCGGCACCUGCCGCCGGUGGUAAAAAAGAUCGGAAGAGCACACGUCU [U7A G9A U10C U11A C12U C13G], the “aptazyme ON/OFF ratio” value rises from 1.2 to 1.23.
